The text below walks through data of patent publication US20040229289A1, “Antigen binding peptides (abtides) from peptide libraries” (Cytogen Corporation, priority 1994, published 2004).

Each structure is given as a SMILES string. Where a SMILES comes first, the peptide text is derived from it. The star is where a group is joined. DTPA = O=C(O)CN(CCN(CC(=O)O)CC(=O)O)CCN(CC(=O)O)CC(=O)*

One series is described as follows: in vivo. Also noted: species or system SCID mice. The conditions noted are these: male, C.B-17/Icr Tac-SCID, mouse, iv, 2 ug, total radioactivity. How it is done:
(§1) Male SCID mice (C.B-17/Icr Tac—SCID mice) were purchased from Fox Chase (Philadelphia, Pa.) or. Taconic Farms (Germantown, N.Y.), were housed in sterilized cages with filter bonnets, and were given autoclaved laboratory rodent chow (Purina, St. Louis, Mo.), and filtered tap water ad libitum.
(§2) 1×10^7 cells of the human prostate tumor line LNCaP (Horoszewicz et al., 1987, Anticancer Res. 7:927-936) were injected subcutaneously (s.c.) into the left rear flank of the mice. The cells were growing in exponential phase before harvesting and had been resuspended in 0.2 mL of sterile saline. Tumors were grown in the mice for 2-3 months before abtides were injected into the mice.
(§3) For biodistribution studies, abtides were modified at their amino termini with the chelator diethylene-triamine-pentaacetic acid anhydride (DTPA-A) (Sigma, St. Louis, Mo.). Approximately 2 mg of each abtide was initially dissolved in an appropriate volume of 0.1% acetic acid and then 1 mL of 0.1 M sodium bicarbonate, pH 8.0, was added. Two mg of DTPA-A was suspended in 100 AL of dimethylsulfoxide (DMSO), and 10 μL of the abtide solution added to this DTPA-A suspension. […]
(§4) In one experiment, abtide clone 14-DPTA-^111In (see Table 2) was injected intravenously (i.v.) into two groups of mice bearing measurable LNCaP xenografts. […] Thus, the total injected dose of radioactivity was about 120-140×10^6 cpm.
(§5) The first group of mice was sacrificed 2 hours after injection of the abtide and tissues were dissected for analysis. […] Dissected tissues were weighed and the amount of ^111In in them was determined by gamma counting. The cpm per gram of each tissue was calculated by dividing the cpm of ^111In found in the tissue by the weight in grams of the tissue. […]
(§6) In another experiment, abtide clone 17-DPTA-^111In (see Table 2) was injected intravenously into four SCID mice bearing measurable LNCaP xenografts. […] Thus, the total injected dose of radioactivity was about 100-110×10^6 cpm. […]

For series [1], the system named is human prostate carcinoma LNCaP xenograft tumors. Kind of series: in vivo. Also noted: species or system SCID mice. The conditions noted are these: mouse, iv. As for the experimental part: as §1, §2, §3, §4, §5, §6

For the compound `CC[C@H](C)[C@H](NC(=O)CNC(=O)CN(CCN(CCN(CC(=O)O)CC(=O)O)CC(=O)O)CC(=O)O)C(=O)N[C@H](C(=O)N[C@@H](CC(N)=O)C(=O)N[C@@H](C)C(=O)N[C@@H](CC(N)=O)C(=O)N[C@@H](CC(=O)O)C(=O)N1CCC[C@H]1C(=O)N[C@@H](CC(C)C)C(=O)N1CCC[C@H]1C(=O)N[C@@H](Cc1ccccc1)C(=O)N[C@@H](Cc1c[nH]c2ccccc12)C(=O)N[C@@H](Cc1ccccc1)C(=O)N[C@@H](CCSC)C(=O)N[C@@H](CO)C(=O)N1CCC[C@H]1C(=O)N[C@@H](Cc1ccc(O)cc1)C(=O)N[C@H](C(=O)N1CCC[C@H]1C(=O)NCC(=O)N1CCC[C@H]1C(=O)N[C@@H](C)C(=O)N1CCC[C@H]1C(=O)N[C@H](C(=O)N[C@@H](CC(=O)O)C(=O)N[C@H](C(=O)N[C@@H](CC(N)=O)C(=O)N[C@@H](C)C(=O)N[C@@H](CO)C(=O)N[C@@H](CCCNC(=N)N)C(=O)N[C@@H](C)C(=O)N[C@@H](CC(C)C)C(=O)N[C@H](C(=O)N[C@@H](CO)C(=O)N[C@@H](CC(N)=O)C(=O)N[C@@H](CCC(=O)O)C(=O)N[C@@H](CO)C(=O)NCC(N)=O)C(C)C)[C@@H](C)CC)[C@@H](C)CC)[C@@H](C)O)[C@@H](C)CC` [abtide clone 14-DPTA-^111In, metal not drawn] ({DTPA}-GIINANDPLPFWFMSPYTPGPAPIDINASRALVSNESG-NH2; N-terminus and C-terminus assumed), the tissue to tissue ratio at 2 h in “in vivo” amounted to 1.85. For the same compound, the “localization to LNCaP xenograft tumors” value in series [1] is on record as “specific localization to the tumor”.
